According to patent publication US20050032689A1, “Methods for treatment or diagnosis of disease or disorders associated with an APB domain” (New York University, priority 1994, published 2005):

Target: T1, EGF receptor (Homo sapiens, UniProt P00533)
T1 construct: expressed in transfected cells; host or cells: HER14 (NIH 3T3 cells expressing human EGF receptor)
Test: Binding of GST fusion proteins to immunoprecipitated EGF receptor phosphorylated in vitro, anti-GST blot
Conditions: immunoprecipitated receptor from unstimulated cells, with or without Mn2+ and ATP
Experimental: FIGS. 2A and 2B. Association of GST-Shc 1-209 with the EGF Receptor (EGFR). A, HER14 lysates from either EGF-stimulated (+) or unstimulated (−) cells (5×10^6 cells) were incubated with 3 μg of GST fusion protein immobilized on glutathione-agarose beads. The bound proteins were washed, subjected to SDS-PAGE, transferred to nitrocellulose and immunoblotted with anti-EGF receptor antibody, anti-C (anti-EGFR). HER14 lysate (4×10^5 cells) was run directly on the gel in lanes 5 and 6. B, unstimulated HER14 lysates (5×10^6 cells) were immunoprecipitated with anti-EGFR antibody (mAb 108). The immobilized receptor was then phosphorylated (+) by the addition of 5 mM MnCl2 and 50 μM ATP or left unphosphorylated (−) by adding MnCl2 alone. Bacterial lysates containing 5 μg of GST, GST-Grb7, and GST-Shc 1-209 were then diluted in 1 ml of 1% Triton X-100 lysis buffer, added to the immobilized receptor and incubated at 4° C. for 90 min. The bound proteins were washed and together with 40 μl of the post-binding supernatant separated by SDS-PAGE and transferred to nitrocellulose. […]
Binding Studies—GST fusion proteins were expressed using standard techniques (Ausubel, F. M., et al. Current Protocols in Molecular Biology, (1992) Wiley Interscience, New York). Protein concentration was determined by SDS-PAGE (polyacrylamide gel electrophoresis) using bovine serum albumin as a standard. […]

B1: Shc 1-209: Shc amino terminus, first 209 amino acids of murine p52Shc, generated as a GST fusion protein (protein, UniProt P98083 1-209, looked up, fragment)
chain: MDLLPPKPKYNPLRNESLSSLEEGASGSTPPEELPSPSASSLGPILPPLPGDDSPTTLCSFFPRMSNLKLANPAGGRLGPKGEPGKAAEDGEGSAGAALRDSGLLPLLQDMNKLSGGGGRRTRVEGGQLGGEEWTRHGSFVNKPTRGWLHPNDKVMGPGVSYLVRYMGCVEVLQSMRALDFNTRTQVTREAISLVCEAVPGAKGATRRR
modifications: GST fusion
notes: Shc amino terminus, first 209 amino acids of murine p52Shc, generated as a GST fusion protein
With B1 the “binding to EGF receptor phosphorylated in vitro” value was “bound directly to phosphorylated but not non-phosphorylated receptors”.
